Results as given in patent publication US20240123070A1 (SHANGHAI GENBASE BIOTECHNOLOGY, published 2024).
Positions count from the first letter of the chain named.

B1: B8.2.4 TCR mutant β95Q-Y (TCR, V domains shown)
V domain 1: AQKITQTQPGMFVQEKEAVTLDCTYDTSDPSYGLFWYKQPSSGEMIFLIYQGSYDQQNATEGRYSLNFQKARKSANLVISASQLGDSAMYFCAMRERTGTASKLTFGTGTRLQVTL
V domain 2: DVKVTQSSRYLVKRTGEKVFLECVQDMDHENMFWYRQDPGLGLRLIYFSYDVKMKEKGDIPEGYSVSREKKERFSLILESASTNQTSMYLCASSYTVPPQHFGDGTRLSILE
B2: B8.2.4 TCR mutant β96T-K (TCR, V domains shown)
V domain 1: B1 V domain 1
V domain 2: B1 V domain 2 with Y95Q, T96K
B3: B8.2.4 TCR mutant β96T-W (TCR, V domains shown)
V domain 1: B1 V domain 1
V domain 2: B1 V domain 2 with Y95Q, T96W
B4: B8.2.4 TCR mutant β96T-I (TCR, V domains shown)
V domain 1: B1 V domain 1
V domain 2: B1 V domain 2 with Y95Q, T96I
B5: B8.2.4 TCR mutant β97V-Q (TCR, V domains shown)
V domain 1: B1 V domain 1
V domain 2: B1 V domain 2 with Y95Q, V97Q
B6: B8.2.4 TCR mutant β97V-H (TCR, V domains shown)
V domain 1: B1 V domain 1
V domain 2: B1 V domain 2 with Y95Q, V97H
B7: B8.2.4 TCR mutant β96T-V (TCR, V domains shown)
V domain 1: B1 V domain 1
V domain 2: B1 V domain 2 with Y95Q, T96V
B8: B8.2.4 TCR mutant β96T-M (TCR, V domains shown)
V domain 1: B1 V domain 1
V domain 2: B1 V domain 2 with Y95Q, T96M
B9: B8.2.4 TCR mutant β96T-G (TCR, V domains shown)
V domain 1: B1 V domain 1
V domain 2: B1 V domain 2 with Y95Q, T96G
B10: B8.2.4 TCR mutant β97V-R (TCR, V domains shown)
V domain 1: B1 V domain 1
V domain 2: B1 V domain 2 with Y95Q, V97R
B11: B8.2.4 TCR mutant β97V-L (TCR, V domains shown)
V domain 1: B1 V domain 1
V domain 2: B1 V domain 2 with Y95Q, V97L
B12: B8.2.4 TCR mutant β96T-E (TCR, V domains shown)
V domain 1: B1 V domain 1
V domain 2: B1 V domain 2 with Y95Q, T96E
B13: B8.2.4 TCR mutant β96T-D (TCR, V domains shown)
V domain 1: B1 V domain 1
V domain 2: B1 V domain 2 with Y95Q, T96D
B14: B8.2.4 TCR mutant β96T-F (TCR, V domains shown)
V domain 1: B1 V domain 1
V domain 2: B1 V domain 2 with Y95Q, T96F
B15: B8.2.4 TCR mutant β96T-Q (TCR, V domains shown)
V domain 1: B1 V domain 1
V domain 2: B1 V domain 2 with Y95Q, T96Q
B16: B8.2.4 TCR mutant β97V-F (TCR, V domains shown)
V domain 1: B1 V domain 1
V domain 2: B1 V domain 2 with Y95Q, V97F
B17: B8.2.4 TCR mutant β97V-E (TCR, V domains shown)
V domain 1: B1 V domain 1
V domain 2: B1 V domain 2 with Y95Q, V97E
B18: B8.2.4 TCR mutant β97V-K (TCR, V domains shown)
V domain 1: B1 V domain 1
V domain 2: B1 V domain 2 with Y95Q, V97K
B19: B8.2.4 TCR mutant β96T-N (TCR, V domains shown)
V domain 1: B1 V domain 1
V domain 2: B1 V domain 2 with Y95Q, T96N
B20: B8.2.4 TCR mutant β97V-G (TCR, V domains shown)
V domain 1: B1 V domain 1
V domain 2: B1 V domain 2 with Y95Q, V97G
B21: B8.2.4 TCR mutant β97V-M (TCR, V domains shown)
V domain 1: B1 V domain 1
V domain 2: B1 V domain 2 with Y95Q, V97M
B22: B8.2.4 TCR mutant β97V-A (TCR, V domains shown)
V domain 1: B1 V domain 1
V domain 2: B1 V domain 2 with Y95Q, V97A
B23: B8.2.4 TCR mutant β97V-S (TCR, V domains shown)
V domain 1: B1 V domain 1
V domain 2: B1 V domain 2 with Y95Q, V97S
B24: B8.2.4 TCR mutant β96T-C (TCR, V domains shown)
V domain 1: B1 V domain 1
V domain 2: B1 V domain 2 with Y95Q, T96C
B25: B8.2.4 TCR mutant β96T-R (TCR, V domains shown)
V domain 1: B1 V domain 1
V domain 2: B1 V domain 2 with Y95Q, T96R
B26: B8.2.4 TCR mutant β97V-D (TCR, V domains shown)
V domain 1: B1 V domain 1
V domain 2: B1 V domain 2 with Y95Q, V97D
B27: B8.2.4 TCR mutant β97V-C (TCR, V domains shown)
V domain 1: B1 V domain 1
V domain 2: B1 V domain 2 with Y95Q, V97C
B28: B8.2.4 TCR mutant β96T-L (TCR, V domains shown)
V domain 1: B1 V domain 1
V domain 2: B1 V domain 2 with Y95Q, T96L
B29: B8.2.4 TCR mutant β96T-H (TCR, V domains shown)
V domain 1: B1 V domain 1
V domain 2: B1 V domain 2 with Y95Q, T96H
B30: B8.2.4 TCR mutant β96T-A (TCR, V domains shown)
V domain 1: B1 V domain 1
V domain 2: B1 V domain 2 with Y95Q, T96A
B31: B8.2.4 TCR mutant β97V-P (TCR, V domains shown)
V domain 1: B1 V domain 1
V domain 2: B1 V domain 2 with Y95Q, V97P
B32: B8.2.4 TCR mutant β96T-S (TCR, V domains shown)
V domain 1: B1 V domain 1
V domain 2: B1 V domain 2 with Y95Q, T96S
B33: B8.2.4 TCR mutant β97V-N (TCR, V domains shown)
V domain 1: B1 V domain 1
V domain 2: B1 V domain 2 with Y95Q, V97N
B34: B8.2.4 TCR mutant β96T-Y (TCR, V domains shown)
V domain 1: B1 V domain 1
V domain 2: B1 V domain 2 with Y95Q, T96Y
B35: B8.2.4 TCR mutant β97V-I (TCR, V domains shown)
V domain 1: B1 V domain 1
V domain 2: B1 V domain 2 with Y95Q, V97I
B36: B8.2.4 TCR mutant β96T-P (TCR, V domains shown)
V domain 1: B1 V domain 1
V domain 2: B1 V domain 2 with Y95Q, T96P

Target: KRAS G13D antigen (G13D-RT6, SEQ ID NO: 20) loaded on Lovo-DPA0301:DPB0501 cells (human)
Test: cell-based or functional assay

TCR Mut RLU/WT RLU	Binder
0.92 ratio	B1
0.84 ratio	B2
0.64 ratio	B3
0.41 ratio	B4
0.3 ratio	B5
0.44 ratio	B6
0.97 ratio	B7
0.35 ratio	B8
0.05 ratio	B9
0.37 ratio	B10
0.58 ratio	B11
0.06 ratio	B12
0.28 ratio	B13
0.42 ratio	B14
0.57 ratio	B15
0.31 ratio	B16
0.31 ratio	B17
0.48 ratio	B18

TCR Mut RLU/WT RLU	Binder
0.82 ratio	B19
0.26 ratio	B20
0.35 ratio	B21
0.56 ratio	B22
0.78 ratio	B23
0.78 ratio	B24
0.49 ratio	B25
0.21 ratio	B26
0.37 ratio	B27
0.31 ratio	B28
0.82 ratio	B29
0.77 ratio	B30
0.32 ratio	B31
0.8 ratio	B32
0.26 ratio	B33
0.4 ratio	B34
0.61 ratio	B35
0.39 ratio	B36
